In patent US20120172293A1 (Takeda / Millennium, published 2012):
Starred links: 1 amine or outer side, 2 acyl side, 3 side chain; linkers in the order of their positions; H or OH if unused. Non-standard residues stand in square brackets, D forms with d. *: point of attachment. Imidazole4carbonyl = O=C(c1cnc[nH]1)*; 4Pal = N[C@@H](Cc1ccncc1)C(=O)O; Cha = N[C@@H](CC1CCCCC1)C(=O)O; Isonicotinoyl = O=C(c1ccncc1)*; Suc = O=C(CCC(=O)[*:2])[*:1]; Aib = CC(C)(N)C(=O)O

B1: Ac-[D-Pro24, Pya(4)26, Cha27,36, Aib28,31, Lys30]-PYY(22-36) (peptide)
peptide: Ac-AS[dP]R[4Pal][Cha][Aib]NK[Aib]TRQR[Cha]-NH2
SMILES: CC(=O)N[C@@H](C)C(=O)N[C@@H](CO)C(=O)N1CCC[C@@H]1C(=O)N[C@@H](CCCNC(=N)N)C(=O)N[C@@H](Cc1ccncc1)C(=O)N[C@@H](CC1CCCCC1)C(=O)NC(C)(C)C(=O)N[C@@H](CC(N)=O)C(=O)N[C@@H](CCCCN)C(=O)NC(C)(C)C(=O)N[C@H](C(=O)N[C@@H](CCCNC(=N)N)C(=O)N[C@@H](CCC(N)=O)C(=O)N[C@@H](CCCNC(=N)N)C(=O)N[C@@H](CC1CCCCC1)C(N)=O)[C@@H](C)O
B2: 3-Carboxypropionyl-[Gln23, D-Pro24, Pya(4)26, Cha27,36, Aib28,31, Lys30]-PYY(23-36) (peptide)
peptide: Suc-Q[dP]R[4Pal][Cha][Aib]NK[Aib]TRQR[Cha]-NH2
SMILES: C[C@@H](O)[C@H](NC(=O)C(C)(C)NC(=O)[C@H](CCCCN)NC(=O)[C@H](CC(N)=O)NC(=O)C(C)(C)NC(=O)[C@H](CC1CCCCC1)NC(=O)[C@H](Cc1ccncc1)NC(=O)[C@H](CCCNC(=N)N)NC(=O)[C@H]1CCCN1C(=O)[C@H](CCC(N)=O)NC(=O)CCC(=O)O)C(=O)N[C@@H](CCCNC(=N)N)C(=O)N[C@@H](CCC(N)=O)C(=O)N[C@@H](CCCNC(=N)N)C(=O)N[C@@H](CC1CCCCC1)C(N)=O
B3: Ac-[Glu23, D-Pro24, Pya(4)26, Cha27,36, Aib28,31, Lys30]-PYY(22-36) (peptide)
peptide: Ac-AE[dP]R[4Pal][Cha][Aib]NK[Aib]TRQR[Cha]-NH2
SMILES: CC(=O)N[C@@H](C)C(=O)N[C@@H](CCC(=O)O)C(=O)N1CCC[C@@H]1C(=O)N[C@@H](CCCNC(=N)N)C(=O)N[C@@H](Cc1ccncc1)C(=O)N[C@@H](CC1CCCCC1)C(=O)NC(C)(C)C(=O)N[C@@H](CC(N)=O)C(=O)N[C@@H](CCCCN)C(=O)NC(C)(C)C(=O)N[C@H](C(=O)N[C@@H](CCCNC(=N)N)C(=O)N[C@@H](CCC(N)=O)C(=O)N[C@@H](CCCNC(=N)N)C(=O)N[C@@H](CC1CCCCC1)C(N)=O)[C@@H](C)O
B4: 4-Pyridinecarbonyl-[Glu23, D-Pro24, Pya(4)26, Cha27,36, Aib28,31, Lys30]-PYY(23-36) (peptide)
peptide: Isonicotinoyl-E[dP]R[4Pal][Cha][Aib]NK[Aib]TRQR[Cha]-NH2
SMILES: C[C@@H](O)[C@H](NC(=O)C(C)(C)NC(=O)[C@H](CCCCN)NC(=O)[C@H](CC(N)=O)NC(=O)C(C)(C)NC(=O)[C@H](CC1CCCCC1)NC(=O)[C@H](Cc1ccncc1)NC(=O)[C@H](CCCNC(=N)N)NC(=O)[C@H]1CCCN1C(=O)[C@H](CCC(=O)O)NC(=O)c1ccncc1)C(=O)N[C@@H](CCCNC(=N)N)C(=O)N[C@@H](CCC(N)=O)C(=O)N[C@@H](CCCNC(=N)N)C(=O)N[C@@H](CC1CCCCC1)C(N)=O
B5: 4-Imidazolecarbonyl-[Glu23, D-Pro24, Pya(4)26, Cha27,36, Aib28,31, Lys30]-PYY(23-36) (peptide)
peptide: Imidazole4carbonyl-E[dP]R[4Pal][Cha][Aib]NK[Aib]TRQR[Cha]-NH2
SMILES: C[C@@H](O)[C@H](NC(=O)C(C)(C)NC(=O)[C@H](CCCCN)NC(=O)[C@H](CC(N)=O)NC(=O)C(C)(C)NC(=O)[C@H](CC1CCCCC1)NC(=O)[C@H](Cc1ccncc1)NC(=O)[C@H](CCCNC(=N)N)NC(=O)[C@H]1CCCN1C(=O)[C@H](CCC(=O)O)NC(=O)c1cnc[nH]1)C(=O)N[C@@H](CCCNC(=N)N)C(=O)N[C@@H](CCC(N)=O)C(=O)N[C@@H](CCCNC(=N)N)C(=O)N[C@@H](CC1CCCCC1)C(N)=O

What follows are binders tested against human Y2 receptor (human) (UniProt P49146) (assay: RBA: displacement of [125I]-PYY from hY2R/CHO membranes).
human Y2 receptor (human), sequence (P49146 whole entry): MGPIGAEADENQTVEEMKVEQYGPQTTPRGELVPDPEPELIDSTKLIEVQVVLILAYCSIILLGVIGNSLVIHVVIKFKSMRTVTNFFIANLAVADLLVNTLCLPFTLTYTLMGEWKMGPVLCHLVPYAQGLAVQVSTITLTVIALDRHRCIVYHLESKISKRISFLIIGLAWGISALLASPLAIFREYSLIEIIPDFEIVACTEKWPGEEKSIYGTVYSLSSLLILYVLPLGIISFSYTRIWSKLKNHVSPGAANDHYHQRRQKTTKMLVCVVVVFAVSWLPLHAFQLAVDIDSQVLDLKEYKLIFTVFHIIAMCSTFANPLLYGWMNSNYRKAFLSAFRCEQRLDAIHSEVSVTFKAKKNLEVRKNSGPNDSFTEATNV

IC50 Ratio (IC50 compound/IC50 PYY(3-36))	Binder
2.3	B1
2	B2
5.3	B3
1.9	B4
1.3	B5

The binders below were run against human Y2 receptor (human) (UniProt P49146) (assay: cell-based or functional assay).

GBA EC50 Ratio ([35S]GTPγS binding) (EC50 compound/EC50 PYY(3-36))	Binder
1.7	B1
1.9	B2
3.5	B3
1.8	B4
1.3	B5
